According to patent publication US20090258926A1 (CENTRE NATIONAL DE LA RECHERCHE SCIENTIFIQUE, published 2009):

Target: importin α of the cellular nuclear import machinery (endogenous, in Hs68 human fibroblasts)
Assay: cell-based or functional assay

Row | Binder | luciferase expression after 12 hrs in synchronized Hs68 cells, relative to expression after 48 hrs | transfection efficiency (luciferase) after 48 hrs relative to MPG
1 | Ac-GALFLGFLGAAGSTMGAWSQPKKKRKV-cysteamide (not fully specified) [MPG peptide (wild-type MPG), tested as MPG/DNA complex with plasmid] | 65% | 
2 | Ac-GALFLGFLGAAGSTMGAWSQPKSKRKV-cysteamide (not fully specified) [MPG^ΔNLS peptide, tested as MPG^ΔNLS/DNA complex with plasmid] |  | 72%
